{"source": "patent US20210246189A1", "biological_target": "transgenic TCR specific for A*02:01/pp65495-503, on transduced PBMCs", "assay": "cell-based or functional assay"}
{"substance": "A1/pp65(363-373) pMHC functionalized with MMAF (irrelevant toxin armed Streptamer) (from UniProt P61769 21-119; P06725 363-373) (peptide-MHC)", "values": [{"measurement": "Ag-specific CD8 T cell population after 5d culture with 0.25 ug pMHC", "value": 60.7, "unit": "%"}]}
{"substance": "un-functionalized A2/pp65495-503 pMHC (Tub-tagged Streptamer) (from UniProt P61769 21-119; P06725 495-503) (peptide-MHC)", "values": [{"measurement": "Ag-specific CD8 T cell population after 5d culture with 0.25 ug pMHC", "value": 64.5, "unit": "%"}, {"measurement": "Ag-specific CD8 T cell population after 5d culture with 0.5 ug pMHC", "value": "20 to 43.7", "unit": "%"}]}
